Test results published in article PMC6514982, “Disruption of Structural Disulfides of Coagulation FXIII-B Subunit; Functional Implications for a Rare Bleeding Disorder” (International Journal of Molecular Sciences, 2019).

Molecular target: the molecule itself
Assay: native gel or EMSA; non-denaturing Native-PAGE (BN sample buffer), transfer to PVDF, Western blot with mouse anti-human FXIII-B antibody

B1: recombinant wild type FXIII-B subunit (coagulation Factor XIII B subunit) (natural protein, human, UniProt P05160 21-661, looked up)
chain: EEKPCGFPHVENGRIAQYYYTFKSFYFPMSIDKKLSFFCLAGYTTESGRQEEQTTCTTEGWSPEPRCFKKCTKPDLSNGYISDVKLLYKIQENMRYGCASGYKTTGGKDEEVVQCLSDGWSSQPTCRKEHETCLAPELYNGNYSTTQKTFKVKDKVQYECATGYYTAGGKKTEEVECLTYGWSLTPKCTKLKCSSLRLIENGYFHPVKQTYEEGDVVQFFCHENYYLSGSDLIQCYNFGWYPESPVCEGRRNRCPPPPLPINSKIQTHSTTYRHGEIVHIECELNFEIHGSAEIRCEDGKWTEPPKCIEGQEKVACEEPPFIENGAANLHSKIYYNGDKVTYACKSGYLLHGSNEITCNRGKWTLPPECVENNENCKHPPVVMNGAVADGILASYATGSSVEYRCNEYYLLRGSKISRCEQGKWSSPPVCLEPCTVNVDYMNRNNIEMKWKYEGKVLHGDLIDFVCKQGYDLSPLTPLSELSVQCNRGEVKYPLCTRKESKGMCTSPPLIKHGVIISSTVDTYENGSSVEYRCFDHHFLEGSREAYCLDGMWTTPPLCLEPCTLSFTEMEKNNLLLKWDFDNRPHILHGEYIEFICRGDTYPAELYITGSILRMQCDRGQLKYPRCIPRQSTLSYQEPLRT
notes: Coagulation factor XIII B chain, human; F13B cDNA (ORF length 1986 bp) in the pEZ-M01 vector; The whole ORF was expressed; the secreted product was analysed; also called rFXIII-B; rFXIII-B2; source: HEK293T, transiently transfected, secreted into the culture medium
For B1, the “stoichiometry N” value was 2.
